Laboratory results: paper PMC10368638, “Differential CaKAN3-CaHSF8 associations underlie distinct immune and heat responses under high temperature and high humidity conditions”

B1: 3x AACAA probe (dsDNA)
DNA 1: AACAAAACAAAACAA
DNA 2: TTGTTTTGTTTTGTT
B2: 3x AACAAm probe (3xAAAAA) (dsDNA)
DNA 1: AAAAAAAAAAAAAAA
DNA 2: TTTTTTTTTTTTTTT

Molecular target: CaKAN3-GST (Capsicum annuum? (pepper), UniProt A0A2G2Z1N1 1-250)
Assay: EMSA; EMSA: 20 uL; 5x binding buffer printed as 1 M Tris-HCl pH 7.5, 5 M NaCl, 1 M KCl, 1 M MgCl2, 0.5 M EDTA pH 8.0, 10 mg/mL BSA (apparently stock concentrations)
Details: protein: recombinant; tags: GST (pDEST-15); label: Cy5; blunt

CaKAN3-GST, sequence (A0A2G2Z1N1 entry or part of it): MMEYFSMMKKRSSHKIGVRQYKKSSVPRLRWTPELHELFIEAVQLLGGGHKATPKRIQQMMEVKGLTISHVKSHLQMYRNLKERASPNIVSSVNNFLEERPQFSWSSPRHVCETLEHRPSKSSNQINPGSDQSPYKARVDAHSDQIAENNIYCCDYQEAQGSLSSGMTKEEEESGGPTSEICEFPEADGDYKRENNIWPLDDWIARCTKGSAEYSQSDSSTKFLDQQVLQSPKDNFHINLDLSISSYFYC

Binder	binding result
B1	binds
B2	no binding
